Results from patent US20060147922A1 (published 2006).

Key:
[1] = target: T1, EDDF2, central domain of EDD (aa 889-1877) (human, UniProt O95071 889-1877); experiment: GSTchk2-N pull-down of IVT EDD deletion mutants
T1 construct: In vitro translated, 35S-labelled; also called central third; central region of EDD
T1 sequence: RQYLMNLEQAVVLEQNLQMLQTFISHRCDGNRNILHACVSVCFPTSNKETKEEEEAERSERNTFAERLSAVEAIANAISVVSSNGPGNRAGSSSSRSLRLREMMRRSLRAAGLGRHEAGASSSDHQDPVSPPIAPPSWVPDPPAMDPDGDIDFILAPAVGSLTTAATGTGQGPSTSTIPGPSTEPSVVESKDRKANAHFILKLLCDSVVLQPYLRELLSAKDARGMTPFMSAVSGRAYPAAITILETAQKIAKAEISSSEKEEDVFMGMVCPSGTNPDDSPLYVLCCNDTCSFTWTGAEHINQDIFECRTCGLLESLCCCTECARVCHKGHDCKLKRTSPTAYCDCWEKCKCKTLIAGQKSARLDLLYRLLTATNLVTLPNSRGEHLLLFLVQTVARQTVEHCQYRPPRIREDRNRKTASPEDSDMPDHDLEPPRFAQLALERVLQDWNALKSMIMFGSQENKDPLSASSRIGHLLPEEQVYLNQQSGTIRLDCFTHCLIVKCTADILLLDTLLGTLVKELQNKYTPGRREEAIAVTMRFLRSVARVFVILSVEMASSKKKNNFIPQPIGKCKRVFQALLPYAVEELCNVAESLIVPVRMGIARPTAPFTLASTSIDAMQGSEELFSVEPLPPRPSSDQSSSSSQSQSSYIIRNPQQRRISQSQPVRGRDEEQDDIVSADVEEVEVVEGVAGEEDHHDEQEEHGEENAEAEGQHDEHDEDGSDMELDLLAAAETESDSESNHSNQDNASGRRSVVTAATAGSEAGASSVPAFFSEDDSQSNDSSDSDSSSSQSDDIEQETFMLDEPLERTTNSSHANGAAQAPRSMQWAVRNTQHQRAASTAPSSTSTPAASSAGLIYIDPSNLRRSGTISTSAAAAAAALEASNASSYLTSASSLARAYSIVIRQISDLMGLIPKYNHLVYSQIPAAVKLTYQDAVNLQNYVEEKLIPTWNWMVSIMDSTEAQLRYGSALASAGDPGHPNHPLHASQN

[2] = target: T2, EDDF3, carboxy domain of EDD (aa 1877-2799) (human, UniProt O95071 1877-2799); experiment: GSTchk2-N pull-down of IVT EDD deletion mutants
T2 construct: In vitro translated, 35S-labelled; also called carboxy third; carboxy terminal region of EDD
T2 sequence: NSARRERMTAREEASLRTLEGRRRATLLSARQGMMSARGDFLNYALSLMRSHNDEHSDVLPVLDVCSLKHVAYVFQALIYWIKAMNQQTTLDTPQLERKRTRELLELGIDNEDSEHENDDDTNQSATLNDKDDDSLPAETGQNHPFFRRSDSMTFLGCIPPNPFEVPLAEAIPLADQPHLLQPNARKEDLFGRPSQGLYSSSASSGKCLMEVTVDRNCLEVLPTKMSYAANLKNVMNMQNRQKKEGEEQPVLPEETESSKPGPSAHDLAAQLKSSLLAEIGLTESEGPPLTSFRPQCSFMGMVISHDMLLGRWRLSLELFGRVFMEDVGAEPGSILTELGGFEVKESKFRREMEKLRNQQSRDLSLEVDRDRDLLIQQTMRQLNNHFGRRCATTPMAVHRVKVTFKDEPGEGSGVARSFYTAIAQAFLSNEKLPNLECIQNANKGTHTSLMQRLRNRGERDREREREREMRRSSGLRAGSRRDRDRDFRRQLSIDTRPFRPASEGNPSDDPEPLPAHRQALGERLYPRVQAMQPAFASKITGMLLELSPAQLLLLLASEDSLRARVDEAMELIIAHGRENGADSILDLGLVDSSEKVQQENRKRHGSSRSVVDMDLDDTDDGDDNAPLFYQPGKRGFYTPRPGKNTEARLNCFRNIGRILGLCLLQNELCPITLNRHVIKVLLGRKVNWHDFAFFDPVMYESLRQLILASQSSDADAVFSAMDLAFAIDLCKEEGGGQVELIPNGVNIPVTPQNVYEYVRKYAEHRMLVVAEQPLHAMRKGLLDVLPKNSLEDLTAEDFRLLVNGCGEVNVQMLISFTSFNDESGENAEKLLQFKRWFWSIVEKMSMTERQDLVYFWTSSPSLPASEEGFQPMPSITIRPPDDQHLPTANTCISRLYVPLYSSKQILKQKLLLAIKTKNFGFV

- binding result [1]: no binding
- binding result [2]: no binding
B1: GSTchk2-N (GST fused to chk2 aa 1-225) (other)
chain: MSRESDVEAQQSHGSSACSQPHGSVTQSQGSSSQSQGISSSSTSTMPNSSQSSHSSSGTLSSLETVSTQELYSIPEDQEPEDQEPEEPTPAPWARLWALQDGFANLECVNDNYWFGRDKSCEYCFDEPLLKRTDKYRTYSKKHFRIFREVGPKNSYIAYIEDHSGNGTFVNTELVGKGKRRPLNNNSEIALSLSRNKVFVFFDLTVDDQSVYPKALRDEYIMSKT
notes: contains the SQ/TQ and FHA domains; also called GSTCHK2-N (WT); chk2 N-terminus; not shown: glutathione S-transferase (GST) fusion partner
